Experimental findings from patent US20190255165A1 (AMAL THERAPEUTICS, published 2019) are described below.

For assay [1], the target named is T1, human TLR4 (human, UniProt O00206 24-839).
T1 construct: whole, on cells; Presented on HEK-hTLR4 cells; also called hTLR4
Put plainly: inferred from IL-8 secretion (ELISA) of HEK-hTLR4 cells, 1 µM. Background: ELISA stands for enzyme-linked immunosorbent assay.

Assay [2] concerns the target T2, human TLR2 (human, UniProt O60603 21-784).
T2 construct: whole, on cells; Presented on HEK-Blue hTLR2 reporter cells; also called hTLR2
The assay can be described thus: inferred from HEK-Blue hTLR2 reporter cells (QuantiBlue OD and IL-8 ELISA).

T2 sequence (O60603 21-784): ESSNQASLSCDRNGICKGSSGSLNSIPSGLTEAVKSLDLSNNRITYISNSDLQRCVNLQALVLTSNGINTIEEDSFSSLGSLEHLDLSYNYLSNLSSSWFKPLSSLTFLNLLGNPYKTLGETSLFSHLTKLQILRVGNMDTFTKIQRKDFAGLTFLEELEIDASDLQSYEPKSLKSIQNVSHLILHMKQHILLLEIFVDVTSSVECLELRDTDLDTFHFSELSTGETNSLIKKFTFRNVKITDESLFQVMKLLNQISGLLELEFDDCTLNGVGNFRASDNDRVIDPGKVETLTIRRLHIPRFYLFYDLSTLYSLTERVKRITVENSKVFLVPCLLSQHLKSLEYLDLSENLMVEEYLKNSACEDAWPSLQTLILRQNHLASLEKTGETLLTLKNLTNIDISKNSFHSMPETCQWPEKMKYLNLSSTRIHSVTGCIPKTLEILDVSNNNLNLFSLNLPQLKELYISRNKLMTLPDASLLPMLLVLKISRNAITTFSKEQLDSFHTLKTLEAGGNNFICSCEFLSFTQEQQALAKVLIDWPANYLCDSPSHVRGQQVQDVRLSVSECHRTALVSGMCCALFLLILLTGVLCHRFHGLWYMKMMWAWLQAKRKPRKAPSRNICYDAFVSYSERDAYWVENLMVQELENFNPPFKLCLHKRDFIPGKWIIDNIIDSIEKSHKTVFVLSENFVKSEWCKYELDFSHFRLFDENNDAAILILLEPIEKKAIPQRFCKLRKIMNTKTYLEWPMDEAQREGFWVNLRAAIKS
T1 sequence (O00206 24-839): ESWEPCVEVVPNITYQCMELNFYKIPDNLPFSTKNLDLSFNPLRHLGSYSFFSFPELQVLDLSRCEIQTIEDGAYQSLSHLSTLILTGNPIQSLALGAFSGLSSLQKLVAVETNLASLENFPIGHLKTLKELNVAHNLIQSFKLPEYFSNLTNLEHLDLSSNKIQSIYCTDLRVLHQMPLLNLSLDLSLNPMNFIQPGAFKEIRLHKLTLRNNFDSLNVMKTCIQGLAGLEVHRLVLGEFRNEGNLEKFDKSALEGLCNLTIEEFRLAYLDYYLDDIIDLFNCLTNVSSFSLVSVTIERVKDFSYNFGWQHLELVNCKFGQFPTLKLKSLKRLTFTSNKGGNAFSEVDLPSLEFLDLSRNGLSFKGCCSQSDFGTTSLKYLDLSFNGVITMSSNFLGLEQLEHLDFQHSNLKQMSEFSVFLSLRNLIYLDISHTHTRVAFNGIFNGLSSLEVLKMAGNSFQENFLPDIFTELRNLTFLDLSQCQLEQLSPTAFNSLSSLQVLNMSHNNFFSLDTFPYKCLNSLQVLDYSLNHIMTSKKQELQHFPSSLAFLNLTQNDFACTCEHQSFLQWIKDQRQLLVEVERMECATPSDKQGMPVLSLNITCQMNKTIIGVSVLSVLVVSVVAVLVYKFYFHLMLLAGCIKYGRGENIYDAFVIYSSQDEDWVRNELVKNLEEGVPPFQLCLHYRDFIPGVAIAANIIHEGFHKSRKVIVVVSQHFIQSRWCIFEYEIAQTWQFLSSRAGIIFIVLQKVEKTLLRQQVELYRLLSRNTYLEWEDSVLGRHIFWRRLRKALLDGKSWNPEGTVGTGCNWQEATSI

B1: EDAZ13Mad5 (other)
chain: MHHHHHHNIDRPKGLAFTDVDVDSIKIAWESPQGQVSRYRVTYSSPEDGIRELFPAPDGEDDTAELQGLRPGSEYTVSVVALHDDMESQPLIGIQSTKRYKNRVASRKSRAKFKQLLQHYREVAAAKSSENDRLRLLLKESLKISQAVHAAHAEINEAGREVVGVGALKVPRNQDWLGVPRFAKFASFEAQGALANIAVDKANLDVEQLESIINFEKLTEWTGS
notes: Recombinant fusion protein with N-terminal MHHHHHH; 25,057 Da; also called fusion protein of TLR4 peptide agonist EDA (N-terminal), Z13 and MAD5 cargo
With B1, the binding result in assay [1] is given as “binds”.

B2: AnaxaZ13Mad5 (other)
chain: MHHHHHHSTVHEILCKLSLEGDHSTPPSAYGSVKPYTNFDAEKRYKNRVASRKSRAKFKQLLQHYREVAAAKSSENDRLRLLLKESLKISQAVHAAHAEINEAGREVVGVGALKVPRNQDWLGVPRFAKFASFEAQGALANIAVDKANLDVEQLESIINFEKLTEWTGS
notes: Recombinant fusion protein with N-terminal MHHHHHH; 18973 Da; also called AnaxZ13Mad5; fusion protein with Anaxa at the N-terminal position, Z13 and MAD5 cargo
With B2, in assay [2], the binding result is listed as “binds”.

B3: Z13Mad5Anaxa (other)
chain: MHHHHHHKRYKNRVASRKSRAKFKQLLQHYREVAAAKSSENDRLRLLLKESLKISQAVHAAHAEINEAGREVVGVGALKVPRNQDWLGVPRFAKFASFEAQGALANIAVDKANLDVEQLESIINFEKLTEWTGSSTVHEILCKLSLEGDHSTPPSAYGSVKPYTNFDAE
notes: Recombinant fusion protein with N-terminal MHHHHHH; 18973 Da; also called fusion protein of cell-penetrating peptide Z13, MAD5 cargo and TLR peptide agonist Anaxa (C-terminal)
Take B3: the binding result in assay [2] and in assay [1] was “binds” in each case.
